# US20030068675, “Position dependent recognition of GNN nucleotide triplets by zinc fingers” (published 2003)
# Positions count from the first letter of the chain named.
# T1: ZFP SBS#1303 (synthetic)
# T1 chain: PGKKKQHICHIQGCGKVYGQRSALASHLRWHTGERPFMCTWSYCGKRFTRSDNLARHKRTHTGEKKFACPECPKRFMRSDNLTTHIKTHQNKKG
# T2: ZFP SBS#1309 (synthetic)
# T2 chain: T1 chain with R21S
# T3: ZFP SBS#1310 (synthetic, UniProt P08047)
# T3 chain: T1 chain with Q20T, R21T
# T4: ZFP SBS#1252 (synthetic)
# T4 chain: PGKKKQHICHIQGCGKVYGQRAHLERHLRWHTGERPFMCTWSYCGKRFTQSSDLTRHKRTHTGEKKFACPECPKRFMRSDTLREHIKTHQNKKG
# T5: ZFP SBS#1302 (synthetic)
# T5 chain: T4 chain with R21S, A22G, E25T
# T6: ZFP SBS#1248 (synthetic)
# T6 chain: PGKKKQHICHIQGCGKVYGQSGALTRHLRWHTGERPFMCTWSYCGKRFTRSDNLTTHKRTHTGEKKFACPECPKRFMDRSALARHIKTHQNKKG
# T7: ZFP SBS#1295 (synthetic)
# T7 chain: T1 chain with Q20D, A23S, A25T, S26T, T84E
# T8: ZFP SBS#1272 (synthetic)
# T8 chain: T1 chain with Q20D, A23S, A25T, S26T, T83R, T84E
# T9: ZFP SBS#1273 (synthetic)
# T9 chain: T1 chain with Q20E, S22G, A23D, A25T, S26T, T83R, T84E
# T10: ZFP SBS#1296 (synthetic)
# T10 chain: T1 chain with Q20E, S22G, A23D, A25T, S26T, T84E
# T11: ZFP SBS#1308 (synthetic)
# T11 chain: T4 chain with Q20E, A22G, H23T, E25A, S52G, D53S, T81H, R83T, E84T
# T12: ZFP SBS#739 (synthetic)
# T12 chain: T4 chain with Q20R, R21S, A22D, E25T, Q50E, S51R, S52G, D53H, T81D, E84R
# T13: ZFP SBS#526 (synthetic)
# T13 chain: T4 chain with Q20R, R21S, A22D, E25T, Q50E, S51R, S52G, D53H, R83K, E84K
# T14: ZFP SBS#1276 (synthetic)
# T14 chain: T1 chain with Q20R, R21S, S22D, A23N, S26R, R50Q, S51R, D52S, A55V
# T15: ZFP SBS#1292 (synthetic)
# T15 chain: T1 chain with R21S, S22G, A23H, S26R, R50T, D52G, A55V, N81A
# T16: ZFP SBS#1239 (synthetic)
# T16 chain: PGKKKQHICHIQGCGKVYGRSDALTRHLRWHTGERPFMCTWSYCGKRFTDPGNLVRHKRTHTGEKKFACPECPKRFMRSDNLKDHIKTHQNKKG
# T17: ZFP SBS#1293 (synthetic)
# T17 chain: T4 chain with Q20T, R21S, A22G, E25V, S52G, D53A, T55A, T81N, R83T, E84Q
# T18: ZFP SBS#505 (synthetic)
# T18 chain: T6 chain with Q20R, G22D, A23S, T25L, T55A, T56R, R79C, S80R, A81D
# T19: ZFP SBS#503 (synthetic)
# T19 chain: T6 chain with Q20R, G22D, A23S, T25L, T55A, T56R, D78E, S80G, A81T
# T20: ZFP SBS#440 (synthetic)
# T20 chain: T6 chain with Q20R, G22D, A23S, T25L, D52K, T55Q, T56R, D78E, S80G, A81T
# T21: ZFP SBS#504 (synthetic)
# T21 chain: T6 chain with Q20R, G22D, A23S, T25L, T55A, T56R, A81D, A83T
# T22: ZFP SBS#1306 (synthetic)
# T22 chain: T16 chain with R26T, P51C, G52R, N53D, V55A, N81A, K83R, D84E
# B1: TAGGAGTTT (dsDNA)
# DNA 1: TAGGAGTTT
# DNA 2: AAACTCCTA
# B2: GTACAGTAG (dsDNA)
# DNA 1: GTACAGTAG
# DNA 2: CTACTGTAC
# B3: CCGGCTGGA (dsDNA)
# DNA 1: CCGGCTGGA
# DNA 2: TCCAGCCGG
# B4: GTCTAGGTA (dsDNA)
# DNA 1: GTCTAGGTA
# DNA 2: TACCTAGAC
# B5: CAGGAGTCC (dsDNA)
# DNA 1: CAGGAGTCC
# DNA 2: GGACTCCTG
# B6: TGGGCAGCC (dsDNA)
# DNA 1: TGGGCAGCC
# DNA 2: GGCTGCCCA
# B7: GCGGGCGGGC (dsDNA)
# DNA 1: GCGGGCGGGC
# DNA 2: GCCCGCCCGC
# B8: GTGGTGATA (dsDNA)
# DNA 1: GTGGTGATA
# DNA 2: TATCACCAC
# B9: TAGGCAGTC (dsDNA)
# DNA 1: TAGGCAGTC
# DNA 2: GACTGCCTA
# B10: TAGGAAGAG (dsDNA)
# DNA 1: TAGGAAGAG
# DNA 2: CTCTTCCTA
# B11: TTGGATGGA (dsDNA)
# DNA 1: TTGGATGGA
# DNA 2: TCCATCCAA
# B12: CAGGACGTG (dsDNA)
# DNA 1: CAGGACGTG
# DNA 2: CACGTCCTG
# B13: GGGGCGTGA (dsDNA)
# DNA 1: GGGGCGTGA
# DNA 2: TCACGCCCC
# B14: AAGGTAGGT (dsDNA)
# DNA 1: AAGGTAGGT
# DNA 2: ACCTACCTT
# B15: GCCGAGGTGC (dsDNA)
# DNA 1: GCCGAGGTGC
# DNA 2: GCACCTCGGC
# B16: CTGGCCTTG (dsDNA)
# DNA 1: CTGGCCTTG
# DNA 2: CAAGGCCAG
# Columns and labels:
# Assay in all cases: EMSA
# Settings in all cases: tags: MBP fusion
# ZFP SBS#1303 = molecular target: T1, ZFP SBS#1303
# In short: (§1)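 Purified ZFP was titrated against labeled double-stranded target (1 nM or lower, at least 10-fold below expected Kd) carrying the natural binding site with flanks. Binding buffer was 10 mM Tris pH 7.5, 100 mM KCl, 1 mM MgCl2, 0.1 mM ZnCl2, 5 mM DTT, 10% glycerol, 0.02% BSA, with equilibration for at least 45 min. Bound and free target were separated on a 10% polyacrylamide gel.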
# ZFP SBS#1309 = molecular target: T2, ZFP SBS#1309
# In short: as §1
# ZFP SBS#1310 = molecular target: T3, ZFP SBS#1310
# In short: as §1
# ZFP SBS#1314 = ZFP SBS#1314 (synthetic)
# In short: as §1
# ZFP SBS#1315 = ZFP SBS#1315 (synthetic)
# Sequence of ZFP SBS#1315 (synthetic) (chain, as listed by the source): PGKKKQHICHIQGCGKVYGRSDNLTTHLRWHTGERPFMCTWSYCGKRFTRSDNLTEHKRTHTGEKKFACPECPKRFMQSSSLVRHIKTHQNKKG
# In short: as §1
# ZFP SBS#1252 = molecular target: T4, ZFP SBS#1252
# In short: as §1
# ZFP SBS#1302 = molecular target: T5, ZFP SBS#1302
# In short: as §1
# ZFP SBS#1300 = ZFP SBS#1300 (synthetic)
# Sequence of ZFP SBS#1300 (synthetic) (chain, as listed by the source): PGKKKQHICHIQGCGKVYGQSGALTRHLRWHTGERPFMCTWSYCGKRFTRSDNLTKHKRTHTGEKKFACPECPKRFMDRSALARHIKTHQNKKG
# In short: as §1
# ZFP SBS#1248 = molecular target: T6, ZFP SBS#1248
# In short: as §1
# ZFP SBS#1295 = molecular target: T7, ZFP SBS#1295
# In short: as §1
# ZFP SBS#1272 = molecular target: T8, ZFP SBS#1272
# In short: as §1
# ZFP SBS#1273 = molecular target: T9, ZFP SBS#1273
# In short: as §1
# ZFP SBS#1296 = molecular target: T10, ZFP SBS#1296
# In short: as §1
# ZFP SBS#1308 = molecular target: T11, ZFP SBS#1308
# In short: as §1
# ZFP SBS#1311 = ZFP SBS#1311 (synthetic)
# Sequence of ZFP SBS#1311 (synthetic) (chain, as listed by the source): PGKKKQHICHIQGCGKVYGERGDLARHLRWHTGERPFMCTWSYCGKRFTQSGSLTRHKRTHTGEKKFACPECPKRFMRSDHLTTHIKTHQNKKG
# In short: as §1
# ZFP SBS#739 = molecular target: T12, ZFP SBS#739
# In short: as §1
# ZFP SBS#526 = molecular target: T13, ZFP SBS#526
# In short: as §1
# ZFP SBS#1290 = ZFP SBS#1290 (synthetic)
# Sequence of ZFP SBS#1290 (synthetic) (chain, as listed by the source): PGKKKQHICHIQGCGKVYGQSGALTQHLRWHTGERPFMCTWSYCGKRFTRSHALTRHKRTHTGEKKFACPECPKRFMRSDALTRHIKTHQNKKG
# In short: as §1
# ZFP SBS#1291 = ZFP SBS#1291 (synthetic)
# Sequence of ZFP SBS#1291 (synthetic) (chain, as listed by the source): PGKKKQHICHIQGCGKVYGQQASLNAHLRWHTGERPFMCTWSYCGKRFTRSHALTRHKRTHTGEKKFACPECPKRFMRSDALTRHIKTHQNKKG
# In short: as §1
# ZFP SBS#1289 = ZFP SBS#1289 (synthetic)
# Sequence of ZFP SBS#1289 (synthetic) (chain, as listed by the source): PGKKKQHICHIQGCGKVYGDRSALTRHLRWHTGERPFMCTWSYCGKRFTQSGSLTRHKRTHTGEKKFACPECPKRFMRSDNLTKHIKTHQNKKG
# In short: as §1
# ZFP SBS#1267 = ZFP SBS#1267 (synthetic)
# Sequence of ZFP SBS#1267 (synthetic) (chain, as listed by the source): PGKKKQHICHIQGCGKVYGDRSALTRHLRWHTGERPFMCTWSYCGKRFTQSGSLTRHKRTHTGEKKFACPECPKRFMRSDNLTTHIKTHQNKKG
# In short: as §1
# ZFP SBS#1297 = ZFP SBS#1297 (synthetic)
# Sequence of ZFP SBS#1297 (synthetic) (chain, as listed by the source): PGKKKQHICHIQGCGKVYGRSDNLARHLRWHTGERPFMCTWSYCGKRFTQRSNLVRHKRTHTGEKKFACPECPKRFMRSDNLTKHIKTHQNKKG
# In short: as §1
# ZFP SBS#1276 = molecular target: T14, ZFP SBS#1276
# In short: as §1
# ZFP SBS#1270 = ZFP SBS#1270 (synthetic)
# Sequence of ZFP SBS#1270 (synthetic) (chain, as listed by the source): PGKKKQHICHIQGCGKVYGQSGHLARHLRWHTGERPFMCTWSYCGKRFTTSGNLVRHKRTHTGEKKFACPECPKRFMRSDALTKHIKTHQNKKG
# In short: as §1
# ZFP SBS#1292 = molecular target: T15, ZFP SBS#1292
# In short: as §1
# ZFP SBS#1239 = molecular target: T16, ZFP SBS#1239
# In short: as §1
# ZFP SBS#1298 = ZFP SBS#1298 (synthetic)
# Sequence of ZFP SBS#1298 (synthetic) (chain, as listed by the source): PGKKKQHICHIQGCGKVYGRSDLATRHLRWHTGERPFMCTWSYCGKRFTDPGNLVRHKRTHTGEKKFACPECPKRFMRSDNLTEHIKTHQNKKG
# In short: as §1
# ZFP SBS#1313 = ZFP SBS#1313 (synthetic, UniProt P08047)
# Sequence of ZFP SBS#1313 (P08047 other isoform, or with tags, fused parts or gaps): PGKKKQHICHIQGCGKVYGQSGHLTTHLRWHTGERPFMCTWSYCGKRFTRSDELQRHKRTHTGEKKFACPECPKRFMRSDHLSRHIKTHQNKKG
# In short: as §1
# ZFP SBS#1312 = ZFP SBS#1312 (synthetic, UniProt P08047)
# Sequence of ZFP SBS#1312 (P08047 other isoform, or with tags, fused parts or gaps): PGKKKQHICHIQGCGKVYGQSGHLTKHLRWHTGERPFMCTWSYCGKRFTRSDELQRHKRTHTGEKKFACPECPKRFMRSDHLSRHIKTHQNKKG
# In short: as §1
# ZFP SBS#1294 = ZFP SBS#1294 (synthetic)
# Sequence of ZFP SBS#1294 (synthetic) (chain, as listed by the source): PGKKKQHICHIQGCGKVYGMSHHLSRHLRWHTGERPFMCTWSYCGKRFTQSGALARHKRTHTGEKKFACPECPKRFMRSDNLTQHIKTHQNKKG
# In short: as §1
# ZFP SBS#1293 = molecular target: T17, ZFP SBS#1293
# In short: as §1
# ZFP SBS#505 = molecular target: T18, ZFP SBS#505
# In short: as §1
# ZFP SBS#503 = molecular target: T19, ZFP SBS#503
# In short: as §1
# ZFP SBS#440 = molecular target: T20, ZFP SBS#440
# In short: as §1
# ZFP SBS#504 = molecular target: T21, ZFP SBS#504
# In short: as §1
# ZFP SBS#1306 = molecular target: T22, ZFP SBS#1306
# In short: as §1
binder,measurement,setting,value
B1,Kd,ZFP SBS#1303,0.088 nM
same,Kd,ZFP SBS#1309,0.184 nM
same,Kd,ZFP SBS#1310,0.075 nM
B2,Kd,ZFP SBS#1314,3.09 nM
same,Kd,ZFP SBS#1315,9.27 nM
B3,Kd,ZFP SBS#1252,0.153 nM
same,Kd,ZFP SBS#1302,0.05 nM
B4,Kd,ZFP SBS#1300,0.46 nM
same,Kd,ZFP SBS#1248,5.14 nM
B5,Kd,ZFP SBS#1295,0.116 nM
same,Kd,ZFP SBS#1272,0.04 nM
same,Kd,ZFP SBS#1273,0.1 nM
same,Kd,ZFP SBS#1296,37 nM
B6,Kd,ZFP SBS#1308,0.305 nM
same,Kd,ZFP SBS#1311,0.91 nM
B7,Kd,ZFP SBS#739,16.5 nM
same,Kd,ZFP SBS#526,8 nM
B8,Kd,ZFP SBS#1290,24.1 nM
same,Kd,ZFP SBS#1291,20.6 nM
B9,Kd,ZFP SBS#1289,1.37 nM
same,Kd,ZFP SBS#1267,6 nM
B10,Kd,ZFP SBS#1297,0.05 nM
same,Kd,ZFP SBS#1276,0.685 nM
B11,Kd,ZFP SBS#1270,0.4 nM
same,Kd,ZFP SBS#1292,4.12 nM
B12,Kd,ZFP SBS#1239,0.144 nM
same,Kd,ZFP SBS#1298,0.05 nM
B13,Kd,ZFP SBS#1313,0.09 nM
same,Kd,ZFP SBS#1312,0.23 nM
B14,Kd,ZFP SBS#1294,2.75 nM
same,Kd,ZFP SBS#1293,0.457 nM
B15,Kd,ZFP SBS#505,65 nM
same,Kd,ZFP SBS#503,50 nM
same,Kd,ZFP SBS#440,40 nM
same,Kd,ZFP SBS#504,25 nM
B16,Kd,ZFP SBS#1306,2.29 nM
